Results taken from patent US20200148774A1 (Genentech, published 2020).
Like-named read-outs stand apart in the source and are kept apart here.

T1: recombinant human CLL-1 extracellular domain (ECD, amino acids 65-265) fused to an N-terminal Flag (human, UniProt Q5QGZ9 65-265)
T1 construct: The construct and the K244Q SNP are stated for the immunogen; they are not written as a piece; also called huCLL-1-Flag; huCLL-1
T1 chain: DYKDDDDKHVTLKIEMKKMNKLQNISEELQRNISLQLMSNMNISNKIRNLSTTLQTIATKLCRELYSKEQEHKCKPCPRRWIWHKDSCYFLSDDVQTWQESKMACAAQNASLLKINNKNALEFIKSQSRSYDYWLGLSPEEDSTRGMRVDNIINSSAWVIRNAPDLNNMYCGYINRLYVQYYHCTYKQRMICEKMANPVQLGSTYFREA

T2: recombinant cynomolgus CLL-1 extracellular domain (ECD, amino acids 65-265) fused to an N-terminal Flag (cynomolgus monkey)
T2 construct: Construct stated for the immunogen; also called CynoCLL-1 Flag; cynoCLL-1
T2 chain: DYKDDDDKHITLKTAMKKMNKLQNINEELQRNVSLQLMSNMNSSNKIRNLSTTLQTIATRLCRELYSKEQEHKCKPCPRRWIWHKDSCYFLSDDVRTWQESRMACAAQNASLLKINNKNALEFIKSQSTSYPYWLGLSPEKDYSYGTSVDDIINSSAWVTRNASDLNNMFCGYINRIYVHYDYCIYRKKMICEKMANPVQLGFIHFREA

T3: human CLL-1 on cells (endogenous on HL-60, EOL-1 and other AML cell lines and CD14+ monocytes); recombinant on … (human, UniProt Q5QGZ9 1-265)
T3 construct: also called 293AD/huCLL-1; tumor-derived CLL-1
T3 sequence: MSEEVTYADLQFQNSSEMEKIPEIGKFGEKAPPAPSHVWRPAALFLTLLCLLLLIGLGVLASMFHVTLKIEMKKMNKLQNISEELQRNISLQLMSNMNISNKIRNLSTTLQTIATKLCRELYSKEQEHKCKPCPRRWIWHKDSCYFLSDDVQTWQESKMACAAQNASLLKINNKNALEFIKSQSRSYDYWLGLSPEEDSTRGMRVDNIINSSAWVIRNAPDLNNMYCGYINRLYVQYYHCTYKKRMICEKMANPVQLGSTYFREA

T4: cynomolgus CLL-1 on cells (recombinant on HEK293AD cells) (cynomolgus monkey)
T4 construct: also called 293AD/cynoCLL-1; 293AD/cynoCLL1
T4 chain: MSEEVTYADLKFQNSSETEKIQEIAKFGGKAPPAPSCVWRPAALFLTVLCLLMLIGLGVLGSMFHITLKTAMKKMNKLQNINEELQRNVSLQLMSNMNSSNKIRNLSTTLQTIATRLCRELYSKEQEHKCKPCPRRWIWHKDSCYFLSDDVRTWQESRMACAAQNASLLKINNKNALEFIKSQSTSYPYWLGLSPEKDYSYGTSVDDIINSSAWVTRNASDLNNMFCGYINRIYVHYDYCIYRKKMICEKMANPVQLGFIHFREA

T5: cynoCD3εγ (cynomolgus monkey, UniProt Q95LI5 22-117; Q95LI7 23-113)
T5 construct: also called cynomolgus CD3εγ
T5 sequence (looked up) 1: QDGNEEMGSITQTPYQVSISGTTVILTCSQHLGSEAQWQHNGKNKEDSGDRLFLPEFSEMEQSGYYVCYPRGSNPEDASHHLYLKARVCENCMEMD
T5 sequence (looked up) 2: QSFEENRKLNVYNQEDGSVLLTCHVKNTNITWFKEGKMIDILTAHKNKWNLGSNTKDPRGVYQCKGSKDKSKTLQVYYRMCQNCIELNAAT

B1: 6E7.L4H1eA54 (antibody, V domains shown)
VH: EVQLVQSGAEVKKPGASVKVSCKASGYSFTDYYMHWVRQAPGQGLEWIGRINPYAGAAFYSQNFKDRVTLTVDTSTSTAYLELSSLRSEDTAVYYCAIERGADLEGYAMDYWGQGTLVTVSS
VL: DIQMTQSPSSLSASVGDRVTITCRASQSVSTSSYNYMHWYQQKPGKPPKLLIKYASNLESGVPSRFSGSGSGTDFTLTISSLQPEDFATYYCQHSWEIPLTFGQGTKVEIK
notes: humanized IgG; also called 6E7.L4H1eN54A; h6E7A
B2: m20B1 (antibody, V domains shown)
VH: EVQLQQSGPELVKPGALVKISCKASGYTFTSYDINWLKQRPGQGLEWIGWIYPGDGTTEYNERFKGKATLTADKSSSTAYLQLSSLTSENSAVYFCARSYDYDYAMDYWGQGTSVTVSS
VL: DIVLTQSPAIMSASPGEKVTMTCSASSSISYMYWYQQKPGTSPKRWIYDTSKLASGVPARFSGSGSGTSYSLTISSMEAEDAATYYCHQRSSWTFGGGTKLEIK
notes: murine monoclonal antibody; also called murine 20B1
B3: 38E4v1 (antibody, V domains shown)
VH: EVQLVQSGAEVKKPGASVKVSCKASGFTFTSYYIHWVRQAPGQGLEWIGWIYPENDNTKYNEKFKDRVTITADTSTSTAYLELSSLRSEDTAVYYCARDGYSRYYFDYWGQGTLVTVSS
VL: DIVMTQSPDSLAVSLGERATINCKSSQSLLNSRTRKNYLAWYQQKPGQSPKLLIYWTSTRKSGVPDRFSGSGSGTDFTLTISSLQAEDVAVYYCKQSFILRTFGQGTKVEIK
notes: also called h38E4v1
B4: 40G5c (antibody, V domains shown)
VH: EVQLVQSGAEVKKPGASVKVSCKASGYTFTNYYIHWVRQAPGQGLEWIGWIYPGDGNTKYNEKFKGRATLTADTSTSTAYLELSSLRSEDTAVYYCARDSYSNYYFDYWGQGTLVTVSS
VL: DIVMTQSPDSLAVSLGERATINCKSSQSLLNSRTRKNYLAWYQQKPGQPPKLLIYWASTRESGVPDRFSGSGSGTDFTLTISSLQAEDVAVYYCTQSFILRTFGQGTKVEIK
notes: also called h40G5c
B5: m28H12 (antibody, V domains shown)
VH: QVQLQQSGAELVKPGASVKLSCTASGFNIKDTYMHWVKQRPEQGLEWIGRIDPANGDTDYDPKFQGKATVTADTSSNTAYLQLSSLTSEDTAVYYCTISGPPYYVMDYWGQGTSVTVSS
VL: DIQMTQSPASLAVSLGQRATISCRASQSVSSSSYSYMHWYQQKPGQPPKLLIKYASNLESGVPARFSGRGSGTDFTLNIHPVEEEDTATYYCQHSWEIPYTFGGGTRLEIK
notes: murine monoclonal antibody; also called murine 28H12
B6: 21C9.L2H3 (antibody, V domains shown)
VH: EVQLVQSGAEVKKPGASVKVSCKASGYTFTDYYLDWVRQAPGQGLEWIGRVNPYNGGTIYNQKFKGRVTLTRDTSTSTAYLELSSLRSEDTAVYYCARDHYRYDPLLDYWGQGTLVTVSS
VL: DIQMTQSPSSLSASVGDRVTITCKASQDVSTAVAWFQQKPGKAPKLLIYSPSYRYTGVPSRFSGSGSGTDFTLTISSLQPEDFATYYCQQLYSTPYTFGQGTKVEIK
notes: humanized, assessed in the form of an IgG; also called humanized 21C9.L2H3; h21C9

Tests used:
[1] = target: T1, recombinant human CLL-1 extracellular …; assay: SPR (Biacore T200), IgG captured by anti-human Fc, CLL-1 as analyte
[2] = target: T2, recombinant cynomolgus CLL-1 …; assay: as above
[3] = target: T3, human CLL-1 on cells (endogenous on …); assay: Scatchard, EOL-1 cells
[4] = target: T4, cynomolgus CLL-1 on cells (recombinant …); assay: Scatchard, 293AD/cynoCLL1 cells
Experimental: (§1) Competition assay mixtures of 50 μL volume containing a fixed concentration of [1¹²⁵] labeled antibody and decreasing concentrations of serially diluted, unlabeled antibody were placed into 96-well plates. HEK293AD cells stably expressing recombinant hu or cynoCLL-1 or HL-60 tumor cells expressing endogenous CLL-1 were cultured in growth media at 37° C. in 5% CO₂. Cells were detached from the flask using Sigma Cell Dissociation Solution and were washed with binding buffer, which consisted of Dulbecco's Modified Eagle Medium (DMEM) with 1% bovine serum albumin (BSA), […] and 0.1% sodium azide. The washed cells were added to the 96 well plates at a density of 100,000 cells in 0.2 mL of binding buffer. […] The final concentration of the unlabeled antibody in the competition assay ranged from 1000 nM through ten 2-fold dilution steps to a 0 nM buffer-only assay. Competition assays were carried out in triplicate. Competition assays were incubated for 2 hours at room temperature. […] The filters were counted on a Wallac Wizard 1470 gamma counter (PerkinElmer Life and Analytical Sciences Inc.; Wellesley, Mass.). The binding data was evaluated using NewLigand software (Genentech), which uses the fitting algorithm of Munson and Robard to determine the binding affinity of the antibody (Munson and Robard 1980).

[5] = target: T3, human CLL-1 on cells (endogenous on …); assay: Scatchard, HL-60 cells
Experimental: as §1

[6] = target: T3, human CLL-1 on cells (endogenous on …); assay: Scatchard, 293AD/huCLL-1 cells
Experimental: Competition assay mixtures of 50 μL volume containing a fixed concentration of [1¹²⁵] labeled antibody and decreasing concentrations of serially diluted, unlabeled antibody were placed into 96-well plates. HEK293AD cells stably expressing recombinant hu or cynoCLL-1 or HL-60 tumor cells expressing endogenous CLL-1 were cultured in growth media at 37° C. in 5% CO₂. Cells were detached from the flask using Sigma Cell Dissociation Solution and were washed with binding buffer, which consisted of Dulbecco's Modified Eagle Medium (DMEM) with 1% bovine serum albumin (BSA), […] and 0.1% sodium azide. The washed cells were added to the 96 well plates at a density of 100,000 cells in 0.2 mL of binding buffer. […] The final concentration of the unlabeled antibody in the competition assay ranged from 1000 nM through ten 2-fold dilution steps to a 0 nM buffer-only assay. Competition assays were carried out in triplicate. Competition assays were incubated for 2 hours at room temperature. After the 2-hour incubation, the competition assays were transferred to a Millipore Multiscreen filter plate (Billerica, Mass.) and washed 4 times with binding buffer to separate the free from bound [I¹²⁵] labeled antibody. The filters were counted on a Wallac Wizard 1470 gamma counter (PerkinElmer Life and Analytical Sciences Inc.; Wellesley, Mass.). The binding data was evaluated using NewLigand software (Genentech), which uses the fitting algorithm of Munson and Robard to determine the binding affinity of the antibody (Munson and Robard 1980).

[7] = target: T4, cynomolgus CLL-1 on cells (recombinant …); assay: FACS, stable cell line expressing recombinant cyno CLL-1
[8] = target: T3, human CLL-1 on cells (endogenous on …); assay: FACS, stable cell line expressing recombinant hu CLL-1 and AML tumor cell lines
cynoCD3εγ = target: T5, cynoCD3εγ; assay: SPR (Biacore)
hCD3εγ = target: T6, hCD3εγ (human, UniProt P07766 23-126; P09693 23-116); assay: SPR (Biacore)
T6 construct: also called human CD3εγ

[9] = target: T1, recombinant human CLL-1 extracellular …; assay: SPR (Biacore T200), IgG captured by anti-human Fc, CLL-1 as analyte
[10] = target: T2, recombinant cynomolgus CLL-1 …; assay: as above
[11] = target: T1, recombinant human CLL-1 extracellular …; assay: SPR (Biacore T200), IgG captured by anti-human Fc, human CLL-1 as analyte
Experimental: The binding affinity of the antibodies in this section was determined by BIAcore™ T200 Format. Briefly, BIAcore™ research grade CM5 chips were activated with 1-ethyl-3-(3-dimethylaminopropyl) carbodiimide (EDC) and N-hydroxysuccinimide (NHS) reagents according to the supplier's instructions. Goat anti-human Fc IgGs were coupled to the chips to achieve approximately 10,000 response units (RU) in each flow cell. Unreacted coupling groups were blocked with 1M ethanolamine. For kinetics measurements, antibodies were captured to achieve approximately 300 RU. Three-fold serial dilutions of human CLL-1 was injected in HBS-P buffer (0.01M HEPES pH7.4, 0.15M NaCl, 0.005% surfactant P20) at 25° C. with a flow rate of 30 μl/min. Association rates (kon) and dissociation rates (koff) were calculated using a 1:1 Langmuir binding model (BIAcore™ T200 Evaluation Software version 2.0). The equilibrium dissociation constant (Kd) was calculated as the ratio koff/kon.

T6 sequence (P07766 23-126, chain 1 of 2): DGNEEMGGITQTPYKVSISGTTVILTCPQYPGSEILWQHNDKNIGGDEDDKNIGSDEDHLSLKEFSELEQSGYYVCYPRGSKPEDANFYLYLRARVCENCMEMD
T6 sequence (P09693 23-116, chain 2 of 2): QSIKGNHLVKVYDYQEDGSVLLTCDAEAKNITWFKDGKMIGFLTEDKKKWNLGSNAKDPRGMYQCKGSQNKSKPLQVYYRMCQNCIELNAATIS

Row | Binder | Kd [1] | Kd [2] | Kd [3] | Kd [4] | Kd [6] | binding result [7] | binding result [8] | Kd (cynoCD3εγ) | Kd (hCD3εγ) | other results
1 | B1 | 3.08 nM | 3.14 nM | 0.32 nM | 0.9 nM | 0.89 nM | – | – | – | – | Kd [5]: 0.64 nM
2 | B2 | – | – | – | – | – | binds | binds | – | – | –
3 | B3 | – | – | – | – | – | – | – | 0.7 nM | 0.5 nM | –
4 | B4 | – | – | – | – | – | – | – | 14 nM | 12 nM | –
5 | B5 | – | – | – | – | – | binds | binds | – | – | –
6 | B6 | 15.1 nM | 9.3 nM | 0.74 nM | 2.4 nM | 3.6 nM | – | – | – | – | Kd [9]: 11.7 nM; Kd [10]: 9.47 nM; Kd [11]: 9.79 nM
